Test results taken from US20040038876A1 (published 2004).

The binders below were run against T1, Shh receptor molecules on C3H10T1/2 cells (UniProt Q61115 1-1434) (assay: cell-based or functional assay).
T1 sequence (looked up): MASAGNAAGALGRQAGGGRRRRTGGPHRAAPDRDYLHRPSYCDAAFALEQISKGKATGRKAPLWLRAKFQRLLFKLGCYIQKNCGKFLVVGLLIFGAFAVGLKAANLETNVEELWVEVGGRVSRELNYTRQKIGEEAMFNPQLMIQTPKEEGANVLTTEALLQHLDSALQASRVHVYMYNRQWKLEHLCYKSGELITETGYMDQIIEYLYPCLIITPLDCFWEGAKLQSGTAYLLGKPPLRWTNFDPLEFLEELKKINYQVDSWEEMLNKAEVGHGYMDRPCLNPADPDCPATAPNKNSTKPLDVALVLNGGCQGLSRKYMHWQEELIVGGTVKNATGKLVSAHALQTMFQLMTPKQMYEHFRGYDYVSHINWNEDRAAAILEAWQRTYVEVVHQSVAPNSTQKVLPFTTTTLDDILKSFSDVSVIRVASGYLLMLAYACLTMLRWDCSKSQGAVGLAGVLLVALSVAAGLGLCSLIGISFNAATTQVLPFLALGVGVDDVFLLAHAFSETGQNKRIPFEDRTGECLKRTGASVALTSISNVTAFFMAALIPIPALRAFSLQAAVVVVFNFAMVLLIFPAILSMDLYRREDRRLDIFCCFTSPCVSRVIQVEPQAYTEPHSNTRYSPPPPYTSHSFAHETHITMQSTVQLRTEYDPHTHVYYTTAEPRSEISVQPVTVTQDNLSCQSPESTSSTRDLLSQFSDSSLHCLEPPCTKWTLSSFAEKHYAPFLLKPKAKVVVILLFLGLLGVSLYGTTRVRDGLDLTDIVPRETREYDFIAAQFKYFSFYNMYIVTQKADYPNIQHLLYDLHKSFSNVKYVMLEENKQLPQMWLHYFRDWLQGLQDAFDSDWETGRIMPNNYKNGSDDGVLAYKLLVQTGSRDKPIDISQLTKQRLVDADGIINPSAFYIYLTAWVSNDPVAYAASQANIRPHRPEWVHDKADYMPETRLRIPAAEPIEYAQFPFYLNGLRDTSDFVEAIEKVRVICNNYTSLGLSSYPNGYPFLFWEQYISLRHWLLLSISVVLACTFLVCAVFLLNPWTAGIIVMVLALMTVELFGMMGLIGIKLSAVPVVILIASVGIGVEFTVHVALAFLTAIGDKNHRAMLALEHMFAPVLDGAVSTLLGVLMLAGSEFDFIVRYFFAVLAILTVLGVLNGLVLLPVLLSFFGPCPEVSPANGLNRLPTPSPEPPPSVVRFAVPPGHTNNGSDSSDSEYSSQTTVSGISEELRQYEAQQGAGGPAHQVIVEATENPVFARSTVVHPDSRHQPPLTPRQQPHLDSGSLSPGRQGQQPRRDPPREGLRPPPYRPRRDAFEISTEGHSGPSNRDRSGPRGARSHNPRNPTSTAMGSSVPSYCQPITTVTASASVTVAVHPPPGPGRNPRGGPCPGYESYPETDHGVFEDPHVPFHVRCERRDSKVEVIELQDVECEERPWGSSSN

IC50 in C3H10T1/2 assay | Binder
0.5 µg/mL | mutant 45 (Shh C1II/A169C + G146C), 5 K PEG (ligand, 5 K PEG maleimide on thiol of Cys146, Cys169) not shown
1 µg/mL | mutant 44 (Shh C1II/A169C + E113C), unmodified (ligand) not shown
0.6 µg/mL | mutant 44 (Shh C1II/A169C + E113C), 5 K PEG (ligand, 5 K PEG maleimide on thiol of Cys113, Cys169) not shown
0.3 µg/mL | mutant 45 (Shh C1II/A169C + G146C), unmodified (ligand) not shown

Biological target: T1, Shh receptor molecules on C3H10T1/2 …
Assay: cell-based or functional assay
Remark: another data set of the same source

Potency (IC50) in C3H10T1/2 assay (alkaline phosphatase induction) | Binder
0.6 µg/mL | mutant 25 (Shh C1II/A169C + S133C), Napth-modified (ligand, N-(1-naphthyl) maleimide on thiol of Cys133, Cys169) not shown
3 µg/mL | mutant 25 (Shh C1II/A169C + S133C), Pyrene-modified (ligand, N-(1-pyrenyl) maleimide on thiol of Cys133, Cys169) not shown
2 µg/mL | mutant 25 (Shh C1II/A169C + S133C), 20 K PEG (ligand, 20 K PEG maleimide on thiol of Cys133, Cys169) not shown
2 µg/mL | mutant 25 (Shh C1II/A169C + S133C), 5 K PEG (ligand, 5 K PEG maleimide on thiol of Cys133, Cys169) not shown
